Measured values: PMC3808355

Test system: ProQ (Escherichia coli (BW25113-derived; ASKA pCA24N clone or pMCSG7 clone))
Test: tryptophan fluorescence titration
Conditions: 20 nM ProQ, excitation 295 nm, emission 355 nm, buffer, salt, pH and temperature not in the material

Substance	Kd [nM]
proP P1 mRNA	17
proP P2 mRNA	11.6
rpoS mRNA	19.5
